Target: FITC-labeled CD4 (UniProt P01730)
Assay: size exclusion HPLC (Biosil 250); CD4-FITC alone eluted at 2.67 minutes

Substance	retention time of the complex [min]
oligomeric gp140 US4 (o-gp140 US4), purified from CHO cell culture supernatant	1.9
US4 gp120, purified from CHO cell culture supernatant	2.17

Reference: patent publication EP1433851A2
